Columns and labels:
[1] = substrate: NC(=O)C1=CN([C@@H]2O[C@H](COP(=O)(O)OP(=O)(O)OC[C@H]3O[C@@H](n4cnc5c(N)ncnc54)[C@H](OP(=O)(O)O)[C@@H]3O)[C@@H](O)[C@H]2O)C=CC1; test: purified protein; format: biochemical, Thermobifida fusca; settings: 50 mM phosphate pH 8.0, 1 µM enzyme, NADPH varied 5.0-500 µM, varied: cofactor
[2] = substrate: c1ccc2[nH]ccc2c1; test: purified protein; format: biochemical, Thermobifida fusca; settings: 50 mM phosphate pH 8.0, 1 µM enzyme, indole varied 0.05-1 mM, NADPH fixed at saturating concentration
[3] = indole fixed at saturating concentration (wild type does not use indole; NADPH depletion control)
[4] = indole fixed at saturating concentration

Protein | Km [1, 3] | kcat [1, 3] | kcat/Km [1, 3] | Km [1, 4] | kcat [1, 4] | kcat/Km [1, 4] | Km [2] | kcat [2] | kcat/Km [2]
PAMO (phenylacetone monooxygenase; PAMOWT, PAMOHPCD, PAMOHPED) (Thermobifida fusca YX) (protein) MAGQTTVDSRRQPPEEVDVLVVGAGFSGLYALYRLRELGRSVHVIETAGDVGGVWYWNRYPGARCDIESIEYCYSFSEEVLQEWNWTERYASQPEILRYINFVADKFDLRSGITFHTTVTAAAFDEATNTWTVDTNHGDRIRARYLIMASGQLSVPQLPNFPGLKDFAGNLYHTGNWPHEPVDFSGQRVGVIGTGSSGIQVSPQIAKQAAELFVFQRTPHFAVPARNAPLDPEFLADLKKRYAEFREESRNTPGGTHRYQGPKSALEVSDEELVETLERYWQEGGPDILAAYRDILRDRDANERVAEFIRNKIRNTVRDPEVAERLVPKGYPFGTKRLILEIDYYEMFNRDNVHLVDTLSAPIETITPRGVRTSEREYELDSLVLATGFDALTGALFKIDIRGVGNVALKEKWAAGPRTYLGLSTAGFPNLFFIAGPGSPSALSNMLVSIEQHVEWVTDHIAYMFKNGLTRSEAVLEKEDEWVEHVNEIADETLYPMTASWYTGANVPGKPRVFMLYVGGFHRYRQICDEVAAKGYEGFVLT | 0.9 µM | 4.8 s⁻¹ | 5.2e+06 M⁻¹ s⁻¹ | – | – | – | – | – | –
PAMO (phenylacetone monooxygenase; PAMOWT, PAMOHPCD, PAMOHPED) (Thermobifida fusca YX; A442P/L443C/P440F/P94D/Q93N/S441H/S444D) (protein) MAGQTTVDSRRQPPEEVDVLVVGAGFSGLYALYRLRELGRSVHVIETAGDVGGVWYWNRYPGARCDIESIEYCYSFSEEVLQEWNWTERYASNDEILRYINFVADKFDLRSGITFHTTVTAAAFDEATNTWTVDTNHGDRIRARYLIMASGQLSVPQLPNFPGLKDFAGNLYHTGNWPHEPVDFSGQRVGVIGTGSSGIQVSPQIAKQAAELFVFQRTPHFAVPARNAPLDPEFLADLKKRYAEFREESRNTPGGTHRYQGPKSALEVSDEELVETLERYWQEGGPDILAAYRDILRDRDANERVAEFIRNKIRNTVRDPEVAERLVPKGYPFGTKRLILEIDYYEMFNRDNVHLVDTLSAPIETITPRGVRTSEREYELDSLVLATGFDALTGALFKIDIRGVGNVALKEKWAAGPRTYLGLSTAGFPNLFFIAGPGSFHPCDNMLVSIEQHVEWVTDHIAYMFKNGLTRSEAVLEKEDEWVEHVNEIADETLYPMTASWYTGANVPGKPRVFMLYVGGFHRYRQICDEVAAKGYEGFVLT | – | – | – | 7.6 µM | 6.8 s⁻¹ | 900000 M⁻¹ s⁻¹ | 58.2 µM | 5.4 s⁻¹ | 93000 M⁻¹ s⁻¹
PAMO (phenylacetone monooxygenase; PAMOWT, PAMOHPCD, PAMOHPED) (Thermobifida fusca YX; A442P/L443E/P440F/P94D/Q93N/S441H/S444D) (protein) MAGQTTVDSRRQPPEEVDVLVVGAGFSGLYALYRLRELGRSVHVIETAGDVGGVWYWNRYPGARCDIESIEYCYSFSEEVLQEWNWTERYASNDEILRYINFVADKFDLRSGITFHTTVTAAAFDEATNTWTVDTNHGDRIRARYLIMASGQLSVPQLPNFPGLKDFAGNLYHTGNWPHEPVDFSGQRVGVIGTGSSGIQVSPQIAKQAAELFVFQRTPHFAVPARNAPLDPEFLADLKKRYAEFREESRNTPGGTHRYQGPKSALEVSDEELVETLERYWQEGGPDILAAYRDILRDRDANERVAEFIRNKIRNTVRDPEVAERLVPKGYPFGTKRLILEIDYYEMFNRDNVHLVDTLSAPIETITPRGVRTSEREYELDSLVLATGFDALTGALFKIDIRGVGNVALKEKWAAGPRTYLGLSTAGFPNLFFIAGPGSFHPEDNMLVSIEQHVEWVTDHIAYMFKNGLTRSEAVLEKEDEWVEHVNEIADETLYPMTASWYTGANVPGKPRVFMLYVGGFHRYRQICDEVAAKGYEGFVLT | – | – | – | 4.4 µM | 1.9 s⁻¹ | 430000 M⁻¹ s⁻¹ | 109.0 µM | 1.7 s⁻¹ | 16000 M⁻¹ s⁻¹

— article PMC9604523, “Discovery of New Phenylacetone Monooxygenase Variants for the Development of Substituted Indigoids through Biocatalysis” (International Journal of Molecular Sciences, 2022)
